Here are results for 18 molecules from patent US20180057604A1 (Genentech, published 2018).

Positions count from the first letter of the chain named.

Sequences and labels used below:
B1: 6270 (antibody, V domains shown)
VH: QVQLVQSGAEVKKPGSSVKVSCKASGGTFSGYGISWVRQAPGQGLEWMGNIIPGFGTANYAQKFQGRVTITADESTSTAYMELSSLRSEDTAVYYCARSGGTKYGMLDVWGQGTMVTVSS
VL: EIVMTQSPATLSVSPGERATLSCRASQSVSSNLAWYQQKPGQAPRLLIYGASTRATGIPARFSGSGSGTEFTLTISSLQSEDFAVYYCQQLLLWPPRTFGGGTKVEIK
notes: anti-BACE1 IgG
B2: 6275 (antibody, V domains shown)
VH: B1 VH with S30R, G33A
VL: B1 VL with L92F
notes: anti-BACE1 IgG
B3: 6289 (antibody, V domains shown)
VH: QLQLQESGPGLVKPSETLSLTCTVSGGSISSSSYYWGWIRQPPGKGLEWIGSIYRSGSTYYNPSLRSRVTISVDTSKNQFSLKLSSVTAADTAVYYCVRVGHGISYFDLWGRGTLVTVSS
VL: B1 VL with M4L, V13L, N32Y, G50D, T53N, E70D, Q79E, S80P, L91S, L93T
notes: anti-BACE1 IgG
B4: 6279 (antibody, V domains shown)
VH: B1 VH with S30R, G33A
VL: B1 VL
notes: anti-BACE1 IgG
B5: 6274 (antibody, V domains shown)
VH: B1 VH
VL: B1 VL with N32H, L92I
notes: anti-BACE1 IgG
B6: 6297 (antibody, V domains shown)
VH: B3 VH with S28P, S52N, R55Y, S67G, V98A, V100L, I104Y, S105N
VL: EIVLTQSPATLSLSPGERATLSCRASQSVSSYLAWFQQKPGQAPRLLIYDASNRATGIPARFSGSGSGTDFTLTISSLEPEDFAVYYCQQVYVWPPRTFGGGTKVEIK
notes: anti-BACE1 IgG
B7: 6293 (antibody, V domains shown)
VH: B3 VH with S52M, R55Y, Y60W, V98A, I104V
VL: B6 VL with F36Y, N53K, V93T
notes: anti-BACE1 IgG
B8: 6296 (antibody, V domains shown)
VH: B3 VH with S52N, R55Y, S67G, V98A, V100L, I104Y, S105N
VL: B6 VL
notes: anti-BACE1 IgG
B9: 6288 (antibody, V domains shown)
VH: B3 VH with I29T, V98A
VL: B6 VL with F36Y, V91S, Y92L, V93T
notes: anti-BACE1 IgG
B10: 6290 (antibody, V domains shown)
VH: B3 VH with S52M, R55Y, Y60W, R66K, V98A, H102L, I104V
VL: B6 VL with F36Y, N53K, V93T
notes: anti-BACE1 IgG
B11: 6299 (antibody, V domains shown)
VH: B1 VH with F29L, G33A, F64S, K103R
VL: B1 VL with S30G, L91S, L92Y
notes: anti-BACE1 IgG
B12: hu7A4.v9 (antibody, V domains shown)
VH: EVQLVQSGAEVKKPGASVKVSCKASGYTFTDYAMHWVRQAPGQGLEWMGGISTYFGRTNYNQKFKGRVTMTRDTSISTAYMELSRLRSDDTAVYYCARGLSGNYVMDYWGQGTTVTVSS
VL: DIVMTQSPDSLAVSLGERATINCRASESVDSYGNSFMHWYQQKPGQPPKLLIYRASNLESGVPDRFSGSGSRTDFTLTISSLQAEDVAVYYCQQSNEGPPTFGQGTKLEIK
notes: IgG
B13: hu7A4.v10 (antibody, V domains shown)
VH: B12 VH with A24G
VL: B12 VL
notes: IgG
B14: hu7A4.v11 (antibody, V domains shown)
VH: B12 VH with R72V
VL: B12 VL
notes: IgG
B15: hu7A4.v12 (antibody, V domains shown)
VH: B12 VH with A24G, R72V
VL: B12 VL
notes: IgG
B16: hu16F6.v1 (antibody, V domains shown)
VH: EVQLVESGPGLVKPSETLSLTCTVSGNSITSEYAWNWIRQPPGKGLEWIGYISYSGTTSYNPSLKSRVTISVDTSKNQFSLKLSSVTAADTAVYYCARYGYGNPATRYFDVWGQGTLVTVSS
VL: DIQMTQSPSSLSASVGDRVTITCRASKSISKYLAWYQQKPGKAPKLLLYSGSTLQSGVPSRFSGSGSGTDYTLTISSLQPEDFATYYCQQHNEYPWTFGQGTKVEIK
notes: IgG; HC 71 V, 78 F
B17: hu16F6.v4 (antibody, V domains shown)
VH: B16 VH with V72R, F79L
VL: B16 VL with A43T, P44N
notes: IgG; HC 71 R, 78 L; also called 16F6.v4 IgG
B18: hu16F6.v3 (antibody, V domains shown)
VH: B16 VH
VL: B16 VL with A43T, P44N
notes: IgG; HC 71 V, 78 F

In the first assay the target is T1, BACE1 in primary mouse cortical neurons (mouse, UniProt P56818 46-501). The assay can be described thus: cell-based or functional assay.
T1 sequence (P56818 46-501): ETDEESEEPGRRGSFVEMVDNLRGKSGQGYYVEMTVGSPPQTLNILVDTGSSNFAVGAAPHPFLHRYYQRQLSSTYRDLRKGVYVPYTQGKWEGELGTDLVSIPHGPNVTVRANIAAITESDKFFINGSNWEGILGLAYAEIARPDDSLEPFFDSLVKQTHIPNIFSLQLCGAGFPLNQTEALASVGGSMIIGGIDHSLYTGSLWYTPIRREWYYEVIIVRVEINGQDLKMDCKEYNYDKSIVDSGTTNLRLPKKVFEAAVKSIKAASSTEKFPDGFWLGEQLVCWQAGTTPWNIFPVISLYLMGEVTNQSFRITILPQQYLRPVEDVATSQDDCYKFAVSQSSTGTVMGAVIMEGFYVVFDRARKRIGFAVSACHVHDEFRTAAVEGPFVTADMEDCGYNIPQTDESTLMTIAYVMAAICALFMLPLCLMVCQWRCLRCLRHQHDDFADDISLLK
On to B1, for which the “IC50, Abeta x-40 in mouse cortical neurons” value was 4.48 nM and the “maximal % inhibition of Abeta x-40” value turned out to be 85%.
In the same order, the values of B2 are 1.27 nM and 71%.
The matching figures for B3: 5.21 nM and 74%.
The matching figures for B4: 6.23 nM and 71%.
As for B5, the “IC50, Abeta x-40 in mouse cortical neurons” value turned out to be 4.82 nM and the “maximal % inhibition of Abeta x-40” value stood at 85%.
The matching figures for B6: 3.89 nM and 63%.
The matching figures for B7: 0.88 nM and 75%.
In the same order, the values of B8 are 7.92 nM and 62%.
Take B9: the “IC50, Abeta x-40 in mouse cortical neurons” value worked out at 11 nM and the “maximal % inhibition of Abeta x-40” value was determined as 67%.
In the same order, the values of B10 are 3.17 nM and 63%.

The next assay deals with T2, human BACE1 (R&D Systems) (human, UniProt P56817).
T2 construct: recombinant, commercial (R&D Systems)
T2 sequence (P56817 22-457 limits assumed): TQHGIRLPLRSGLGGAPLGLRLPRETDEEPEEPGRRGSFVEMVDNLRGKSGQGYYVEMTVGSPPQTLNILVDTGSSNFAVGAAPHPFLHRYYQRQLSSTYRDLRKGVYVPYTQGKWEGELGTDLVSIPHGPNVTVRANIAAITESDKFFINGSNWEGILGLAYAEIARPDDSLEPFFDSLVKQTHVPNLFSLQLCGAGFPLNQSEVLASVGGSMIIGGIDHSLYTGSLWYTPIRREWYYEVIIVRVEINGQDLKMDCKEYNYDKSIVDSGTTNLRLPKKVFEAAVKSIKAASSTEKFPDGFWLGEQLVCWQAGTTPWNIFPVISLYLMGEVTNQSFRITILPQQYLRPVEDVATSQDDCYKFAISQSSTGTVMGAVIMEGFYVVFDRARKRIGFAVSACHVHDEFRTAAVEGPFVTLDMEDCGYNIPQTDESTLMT
The assay can be described thus: SPR (Biacore). A general note: In SPR one partner is held on a chip, and binding of the other changes the refractive index at the surface.
Experimental: Binding affinities of certain anti-BACE1 IgGs were measured by surface plasmon resonance (SRP) using a BIAcore™-T100 instrument. […] Association rates (kon) and dissociation rates (koff) were calculated using a simple one-to-one Langmuir binding model (BIAcore Evaluation Software version 3.2). The equilibrium dissociation constant (KD) was calculated as the ratio koff/kon.
The molecule B1 yielded a Kd of 4.64 nM.
Same read-out and setting: next, B2: 2.68 nM; B3: 7.37 nM.
B4 had a Kd of 2.11 nM.
On the same count and under the same terms, the same measure for B5: 4.18 nM; for B6: 3.87 nM; for B11: 5.82 nM.
Same read-out and setting: next, B7: 8.26 nM.
The same measure, in the same setting: next, B8: 3.29 nM; B9: 4.79 nM; B10: 3.19 nM.

In a further assay the target is T3, human TfR extracellular domain with N-terminal His tag (human, UniProt P02786 89-760).
T3 construct: Biotinylated in some assays; also called huTfR; HuTfR
T3 sequence (P02786 89-760 G142S): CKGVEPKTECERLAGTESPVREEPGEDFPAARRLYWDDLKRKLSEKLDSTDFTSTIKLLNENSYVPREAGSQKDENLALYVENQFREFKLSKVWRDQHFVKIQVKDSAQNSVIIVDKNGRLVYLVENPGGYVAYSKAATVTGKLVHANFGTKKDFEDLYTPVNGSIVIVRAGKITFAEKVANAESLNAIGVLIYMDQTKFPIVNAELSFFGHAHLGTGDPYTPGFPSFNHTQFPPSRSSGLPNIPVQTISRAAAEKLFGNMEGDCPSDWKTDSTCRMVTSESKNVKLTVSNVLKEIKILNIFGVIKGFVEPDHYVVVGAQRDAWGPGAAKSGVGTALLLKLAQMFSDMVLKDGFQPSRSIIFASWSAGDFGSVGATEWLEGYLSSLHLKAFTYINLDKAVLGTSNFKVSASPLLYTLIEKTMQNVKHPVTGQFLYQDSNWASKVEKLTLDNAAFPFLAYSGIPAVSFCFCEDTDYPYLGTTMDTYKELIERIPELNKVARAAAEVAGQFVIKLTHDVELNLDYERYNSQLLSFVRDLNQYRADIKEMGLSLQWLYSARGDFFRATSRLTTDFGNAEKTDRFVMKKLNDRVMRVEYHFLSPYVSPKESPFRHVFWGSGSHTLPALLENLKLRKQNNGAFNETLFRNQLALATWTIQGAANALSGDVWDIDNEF
As to the kind of experiment: SPR, IgG.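 Also: His-tagged TfR captured via immobilized anti-His antibody on a CM5 chip, antibody injected in 3-fold dilution series by single cycle kinetics, 1:1 Langmuir or steady-state fit.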
Experimental: (§1) Antibody affinities were measured using surface plasmon resonance (“SPR”) (Biacore™, GE Healthcare). Anti-His antibody (Qiagen) was coupled onto four different flow cells of a BIACORE™ CM5 sensor chip (Biacore, Inc., Piscataway, N.J.) at between 6000 and 8000 RU. Immobilization was achieved by random coupling through amino groups using a protocol provided by the manufacturer. 10×HBS-P (Biacore, Inc., Piscataway, N.J.) was diluted in water and served as the dilution and running buffer. Purified human or cyno TfR was captured, followed by a 3-fold dilution series of IgG or Fab that was injected at a flow rate of 30 ml/min using the single cycle kinetics method. Affinity constants were determined using a simple 1:1 Langmuir binding model or using a steady state model when kₒₙ or koff was beyond the detection limit. The equilibrium dissociation constant (KD) was calculated as the ratio of association rate constant (kₒₙ) and dissociation rate constant (koff).
(§2) In both cases, the SPR experiments were performed as described above.
For B12, the dissociation constant (Kd) came to 0.119 nM.
For the molecule B13, the Kd came out at 0.143 nM.
Molecule B14 had a Kd of 0.156 nM.
As to B15, the Kd worked out at 0.2 nM.
The same measure, in the same setting: next, B16: 18.7 nM; B17: 0.884 nM; B18: 4.11 nM.

In the next assay the target is T4, cyno TfR extracellular domain (analogous construct to human TfR ecd) (cynomolgus monkey, UniProt Q5RDH6 87-760 (Pongo abelii entry)).
T4 construct: also called cynoTfR ecd
T4 chain: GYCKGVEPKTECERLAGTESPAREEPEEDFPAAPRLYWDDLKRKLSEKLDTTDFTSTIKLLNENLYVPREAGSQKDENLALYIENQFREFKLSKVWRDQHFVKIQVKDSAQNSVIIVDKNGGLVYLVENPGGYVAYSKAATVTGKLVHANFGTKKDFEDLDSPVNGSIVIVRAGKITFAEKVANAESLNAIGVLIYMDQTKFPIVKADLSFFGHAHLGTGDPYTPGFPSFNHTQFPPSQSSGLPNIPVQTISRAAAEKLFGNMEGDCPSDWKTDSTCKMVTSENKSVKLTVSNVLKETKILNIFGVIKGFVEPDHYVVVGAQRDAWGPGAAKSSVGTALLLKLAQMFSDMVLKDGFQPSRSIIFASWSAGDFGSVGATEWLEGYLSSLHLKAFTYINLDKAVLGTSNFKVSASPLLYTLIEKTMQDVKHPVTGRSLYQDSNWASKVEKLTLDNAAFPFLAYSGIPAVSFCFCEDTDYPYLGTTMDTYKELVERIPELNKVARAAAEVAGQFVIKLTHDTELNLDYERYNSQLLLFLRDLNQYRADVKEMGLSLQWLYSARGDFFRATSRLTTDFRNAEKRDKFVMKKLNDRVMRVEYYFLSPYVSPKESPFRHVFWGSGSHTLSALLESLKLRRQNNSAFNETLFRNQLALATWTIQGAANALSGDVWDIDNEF
The assay can be described thus: SPR, IgG.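 Also: His-tagged TfR captured via immobilized anti-His antibody on a CM5 chip, antibody injected in 3-fold dilution series by single cycle kinetics, 1:1 Langmuir or steady-state fit.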
Experimental: as §1, §2
In the case of B12, the Kd came out at 0.428 nM.
Same read-out and setting: next, B13: 0.505 nM; B14: 0.943 nM; B15: 2.09 nM.
The same measure, in the same setting: next, B16: 199 nM.
Molecule B17 gave a dissociation constant Kd of 11 nM.
Same read-out and setting: the same measure for B18: 34.5 nM.

In another assay the target is T1, BACE1 in primary mouse cortical neurons. The assay can be described thus: cell-based or functional assay. The source holds these as a separate data set.
In the case of B11, the “IC50, Abeta x-40 in mouse cortical neurons” value worked out at 10.4 nM and the “maximal % inhibition of Abeta x-40” value was determined as 70%.

Another assay concerns the target T5, human BACE1 ECD.
T5 construct: analyte of the Octet assay (200 nM) and enzyme of the first short substrate assay; also called human BACE1 extracellular domain
The assay can be described thus: Octet, pH 5.0.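 Also: antibodies captured on anti-human capture sensor tips, dissociation monitored in PBS with BSA buffer, kinetics fitted with a one-to-one binding model.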
Experimental: (§3) Anti-BACE1 antibodies were loaded onto anti-human capture (AHC) sensors (tips) followed by 60 seconds baseline in assay buffer. […] Tips were transferred to assay buffer for 5 minutes, 30 minutes, or 120 minutes depending on the off-rate, for off-rate measurement. Assay buffer was either PBS+0.1% BSA, pH 7.5; or PBS+0.1% BSA, pH 5.0. Kinetics were analyzed using a 1:1 binding model.
B1 had a Kd of less than 0.29 nM.
Same read-out and setting: the same measure for B2: less than 0.34 nM.
On the same count and under the same terms, next, B3: 0.39 nM; B4: less than 0.36 nM; B5: 0.53 nM.
Still for that read-out and setting: the same measure for B6: 0.28 nM; for B11: less than 0.28 nM; for B7: less than 0.28 nM.
As for B8, binding was put at a Kd of 0.2 nM.
Still for that read-out and setting: the same measure for B9: less than 0.21 nM.
Same read-out and setting: next, B10: less than 0.23 nM.

In another assay the target is T6, murine BACE1 ECD.
T6 construct: analyte of the Octet assay (200 nM) and enzyme of the first short substrate assay
T6 sequence (single chain, as listed by the source limits assumed): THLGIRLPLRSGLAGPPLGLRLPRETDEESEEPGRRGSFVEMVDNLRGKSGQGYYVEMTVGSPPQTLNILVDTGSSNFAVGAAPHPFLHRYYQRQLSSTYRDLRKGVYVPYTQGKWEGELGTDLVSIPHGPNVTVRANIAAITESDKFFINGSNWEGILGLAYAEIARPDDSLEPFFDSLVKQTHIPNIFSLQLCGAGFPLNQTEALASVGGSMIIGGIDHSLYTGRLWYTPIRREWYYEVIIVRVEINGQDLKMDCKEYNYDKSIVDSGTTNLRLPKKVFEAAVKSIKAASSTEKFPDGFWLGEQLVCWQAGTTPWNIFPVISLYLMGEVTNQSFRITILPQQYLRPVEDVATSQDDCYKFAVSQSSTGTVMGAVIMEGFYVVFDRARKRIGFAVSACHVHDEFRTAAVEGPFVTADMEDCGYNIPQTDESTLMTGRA
As to the kind of experiment: Octet, pH 5.0.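 Also: antibodies captured on anti-human capture sensor tips, dissociation monitored in PBS with BSA buffer, kinetics fitted with a one-to-one binding model.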 Background: Biolayer interferometry detects binding as a change in optical thickness at a sensor tip.
Experimental: as §3
B1 had a Kd of less than 0.41 nM.
Still for that read-out and setting: the same measure for B2: less than 0.37 nM.
In turn, B3 yielded a Kd of 0.38 nM.
The same measure, in the same setting: the same measure for B4: less than 0.43 nM.
The same measure, in the same setting: next, B5: 0.76 nM; B6: 0.32 nM; B11: less than 0.46 nM.
On the same count and under the same terms, next, B7: less than 0.28 nM; B8: less than 0.24 nM; B9: 0.28 nM.
B10 showed a Kd of less than 0.27 nM.

For the next assay, the target named is T5, human BACE1 ECD. The assay can be described thus: Octet, pH 7.5.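 Also: antibodies captured on anti-human capture sensor tips, dissociation monitored in PBS with BSA, Kd obtained from kinetic fit to a one-to-one binding model.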
T5 sequence (single chain, as listed by the source limits assumed): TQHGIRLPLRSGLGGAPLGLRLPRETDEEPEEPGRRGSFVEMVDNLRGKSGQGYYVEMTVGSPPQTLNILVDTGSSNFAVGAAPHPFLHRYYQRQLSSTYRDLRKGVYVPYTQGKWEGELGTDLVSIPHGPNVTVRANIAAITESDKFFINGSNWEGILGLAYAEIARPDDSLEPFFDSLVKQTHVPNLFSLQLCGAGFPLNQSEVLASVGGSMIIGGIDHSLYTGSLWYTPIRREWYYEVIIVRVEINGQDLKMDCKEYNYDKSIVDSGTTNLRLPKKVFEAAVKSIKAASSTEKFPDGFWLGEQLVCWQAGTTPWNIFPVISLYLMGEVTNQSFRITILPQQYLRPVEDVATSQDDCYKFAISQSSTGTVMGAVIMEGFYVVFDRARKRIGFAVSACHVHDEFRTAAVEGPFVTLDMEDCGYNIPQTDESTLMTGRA
Experimental: as §3
In the case of B1, the Kd is less than 0.29 nM.
Same read-out and setting: next, B2: less than 0.48 nM; B3: 0.37 nM.
The same measure, in the same setting: the same measure for B4: less than 0.45 nM.
In turn, B5 showed a Kd of less than 0.37 nM.
In turn, B6 gave a Kd of 0.4 nM.
The same measure, in the same setting: next, B11: less than 0.41 nM; B7: less than 0.28 nM.
The same measure, in the same setting: next, B8: 0.28 nM; B9: less than 0.21 nM.
The same measure, in the same setting: the same measure for B10: less than 0.26 nM.

A further assay concerns the target T6, murine BACE1 ECD. As to the kind of experiment: Octet, pH 7.5.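 Also: antibodies captured on anti-human capture sensor tips, dissociation monitored in PBS with BSA, Kd obtained from kinetic fit to a one-to-one binding model.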
Experimental: as §3
For the molecule B1, the Kd is less than 0.4 nM.
The same measure, in the same setting: the same measure for B2: less than 0.49 nM; for B3: 0.28 nM; for B4: less than 0.46 nM.
Same read-out and setting: next, B5: less than 0.37 nM; B6: less than 0.26 nM; B11: less than 0.41 nM.
Still for that read-out and setting: the same measure for B7: less than 0.28 nM; for B8: less than 0.24 nM.
As to B9, the Kd was less than 0.23 nM.
Same read-out and setting: next, B10: less than 0.27 nM.

As usually defined, the Kd is the constant that tells how readily two partners part at equilibrium. A low value points to tighter binding.
